Results on eight molecules are retold here after patent publication US20230340128A1 (Xencor, published 2023).

Residue numbers refer to the chain shown, from its start.

Experiment [1] concerns the target T1, human mesothelin (MSLN) (human, UniProt Q13421 296-580, limits assumed).
T1 construct: Antigen of the Octet KD values
Nature of the experiment: BLI (Octet), bsAb in 1+1 Fab-scFv-Fc format. Background: In BLI a coated tip is dipped into the sample, and binding shifts an interference pattern.

For experiment [2], the target named is T1, human mesothelin (MSLN). The experiment can be described thus: KD quoted in the FIG. 25 legend; Octet (BLI) per FIGS. 20-21.
In experiment [3] the target is T1, human mesothelin (MSLN). Nature of the experiment: BLI (Octet), multiple concentrations, bsAb in 1+1 Fab-scFv-Fc format; lower table, column 'human MSLN (M)'.
Another experiment addresses T2, human CD28 (human, UniProt P10747 19-152, limits assumed).
T2 construct: also called Cluster of Differentiation 28; Tp44
Nature of the experiment: label in the legend box: nominal affinity of the CD28 binding domain (paragraph 422 calls such label values KD); method not stated on the sheet.

For experiment [4], the target named is T1, human mesothelin (MSLN). The experiment can be described thus: label in the legend box: nominal affinity of the MSLN binding domain (paragraph 422 calls such label values KD); method not stated on the sheet.

B1: XENP32563 (bispecific antibody)
chain 1: QVQLVQSGAEVKKPGASVKVSCKASGYTFTSYWMHWVRQAPGQGLEWMGMIHPNSDNTIYYEKFQGRVTMTVDKSISTAYMELSRLRSDDTAVYYCAIIITPVVPKFDYWGQGTLVTVSSASTKGPSVFPLAPSSKSTSGGTAALGCLVKDYFPEPVTVSWNSGALTSGVHTFPAVLQSSGLYSLSSVVTVPSSSLGTQTYICNVNHKPSDTKVDKKVEPKSCDKTHTCPPCPAPPVAGPSVFLFPPKPKDTLMISRTPEVTCVVVDVKHEDPEVKFNWYVDGVEVHNAKTKPREEEYNSTYRVVSVLTVLHQDWLNGKEYKCKVSNKALPAPIEKTISKAKGQPREPQVYTLPPSREEMTKNQVSLTCDVSGFYPSDIAVEWESDGQPENNYKTTPPVLDSDGSFFLYSKLTVDKSRWEQGDVFSCSVMHEALHNHYTQKSLSLSPGK
chain 2: not shown
chain 3: DIVMTQSPDSLAVSLGERATINCKASHDVGTYVAWYQQKPGQSPKLLIYWASTRHTGVPDRFTGSGSGTDFTLTISSLQAEDVAVYFCQQYSSYPLTFGAGTKLEIKRTVAAPSVFIFPPSDEQLKSGTASVVCLLNNFYPREAKVQWKVDNALQSGNSQESVTEQDSKDSTYSLSSTLTLSKADYEKHKVYACEVTHQGLSSPVTKSFNRGEC
Usually Kd stands for the concentration at which binding is half-saturated. A high value points to a looser complex. The term koff denotes the rate constant with which the complex falls apart. Low readings indicate slow dissociation, high ones fast dissociation. A word on the kon: it is the rate constant with which the complex forms. Low readings indicate slower complex formation, high ones faster complex formation. Turning to B1, in the experiment with human mesothelin (MSLN) [1], the Kd is 12.8 nM, the Response was determined as 0.898, the koff was determined as 0.00672 s⁻¹ and the kon turned out to be 527000 M⁻¹ s⁻¹. The Kd in the experiment with human mesothelin (MSLN) [2] was around 12.8 nM.

B2: XENP32552 (bispecific antibody)
chain 1: B1 chain 1 with M50W
chain 2: not shown
chain 3: B1 chain 3 with Y32S
In the experiment with human mesothelin (MSLN) [1], B2 had a Kd of 30 nM, a Response of 0.915, a koff of 0.0147 s⁻¹ and a kon of 491000 M⁻¹ s⁻¹. Besides, the Kd with human mesothelin (MSLN) [3] is 9.2 nM.

B3: XENP32948 (bispecific antibody)
chain 1: B1 chain 1 with E62Q
chain 2: QVQLVQSGAEVKKPGASVKVSCKASGYTFTSYWMHWVRQAPGQGLEWMGMIHPNSDNTIYYQKFQGRVTMTVDKSISTAYMELSRLRSDDTAVYYCAIIITPVVPKFDYWGQGTLVTVSSASTKGPSVFPLAPSSKSTSGGTAALGCLVKDYFPEPVTVSWNSGALTSGVHTFPAVLQSSGLYSLSSVVTVPSSSLGTQTYICNVNHKPSNTKVDKKVEPKSCGGGGSGGGGSQAVVTQEPSLTVSPGGTVTLTCGSSTGAVTTSNYANWVQQKPGKSPRGLIGGTNKRAPGVPARFSGSLLGGKAALTISGAQPEDEADYYCALWYSNHWVFGGGTKLTVLGKPGSGKPGSGKPGSGKPGSEVQLVESGGGLVQPGGSLRLSCAASGFTFSTYAMNWVRQAPGKGLEWVGRIRSKANNYATYYADSVKGRFTISRDDSKNTLYLQMNSLRAEDTAVYYCVRHGNFGDSYVSWFAYWGQGTLVTVSSGGGGSGGGGSKTHTCPPCPAPPVAGPSVFLFPPKPKDTLMISRTPEVTCVVVDVKHEDPEVKFNWYVDGVEVHNAKTKPREEQYNSTYRVVSVLTVLHQDWLNGKEYKCKVSNKALPAPIEKTISKAKGQPREPQVYTLPPSREQMTKNQVKLTCLVKGFYPSDIAVEWESNGQPENNYKTTPPVLDSDGSFFLYSKLTVDKSRWQQGNVFSCSVMHEALHNHYTQKSLSLSPGK
chain 3: B1 chain 3 with Y32S, S92Y
B3: in the experiment with human mesothelin (MSLN) [2], the Kd was 10.2 nM.

B4: XENP32567 (bispecific antibody)
chain 1: B1 chain 1
chain 2: not shown
chain 3: B1 chain 3 with Y32S, S92Y
In the experiment with human mesothelin (MSLN) [1], B4 displayed a Kd of 15.3 nM, a Response of 0.953, a koff of 0.00887 s⁻¹ and a kon of 578000 M⁻¹ s⁻¹. Also, binding with human mesothelin (MSLN) [3] was characterised by a dissociation constant (Kd) of 3.9 nM.

B5: XENP44471 (bispecific antibody)
heavy 1: B1 chain 1 with M50W, M430L, N436S
heavy 2: not shown
light 1: B1 chain 3 with Y32S
light 2: B1 chain 3 with Y32S
notes: also called XENP44471 MSLN (9 nM) x CD28 (180 nM) 2+1 Fab2-scFv-Fc
For the molecule B5, the Kd in the experiment with human CD28 was found to be 180 nM; in the experiment with human mesothelin (MSLN) [4], 9 nM.

B6: XENP44477 (bispecific antibody)
heavy: QVQLVQSGAEVKKPGASVKVSCKASGYTFTSYWMHWVRQAPGQGLEWMGWIHPNSDNTIYYEKFQGRVTMTVDKSISTAYMELSRLRSDDTAVYYCAIIITPVVPKFDYWGQGTLVTVSSASTKGPSVFPLAPSSKSTSGGTAALGCLVKDYFPEPVTVSWNSGALTSGVHTFPAVLQSSGLYSLSSVVTVPSSSLGTQTYICNVNHKPSDTKVDKKVEPKSCGGGGSGGGGSQVQLVQSGAEVKKPGASVKVSCKASGYTFTSYWMHWVRQAPGQGLEWMGWIHPNSDNTIYYEKFQGRVTMTVDKSISTAYMELSRLRSDDTAVYYCAIIITPVVPKFDYWGQGTLVTVSSASTKGPSVFPLAPSSKSTSGGTAALGCLVKDYFPEPVTVSWNSGALTSGVHTFPAVLQSSGLYSLSSVVTVPSSSLGTQTYICNVNHKPSDTKVDKKVEPKSCDKTHTCPPCPAPPVAGPSVFLFPPKPKDTLMISRTPEVTCVVVDVKHEDPEVKFNWYVDGVEVHNAKTKPREEEYNSTYRVVSVLTVLHQDWLNGKEYKCKVSNKALPAPIEKTISKAKGQPREPQVYTLPPSREEMTKNQVSLTCDVSGFYPSDIAVEWESDGQPENNYKTTPPVLDSDGSFFLYSKLTVDKSRWEQGDVFSCSVLHEALHSHYTQKSLSLSPGK
scFv-Fc: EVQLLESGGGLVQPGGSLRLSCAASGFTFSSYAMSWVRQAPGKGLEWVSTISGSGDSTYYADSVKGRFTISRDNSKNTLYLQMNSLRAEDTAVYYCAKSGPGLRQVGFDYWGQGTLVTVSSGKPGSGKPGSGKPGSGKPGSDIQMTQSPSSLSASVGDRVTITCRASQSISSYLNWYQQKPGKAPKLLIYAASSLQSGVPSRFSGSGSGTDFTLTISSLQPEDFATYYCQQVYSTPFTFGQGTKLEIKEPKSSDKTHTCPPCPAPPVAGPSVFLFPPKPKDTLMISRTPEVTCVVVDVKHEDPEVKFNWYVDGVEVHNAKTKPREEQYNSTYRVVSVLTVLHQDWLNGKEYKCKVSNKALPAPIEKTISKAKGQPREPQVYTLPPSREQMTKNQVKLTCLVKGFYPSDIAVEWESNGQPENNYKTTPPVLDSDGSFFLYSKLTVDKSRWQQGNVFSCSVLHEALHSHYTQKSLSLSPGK
light 1: B1 chain 3 with Y32S
light 2: B1 chain 3 with Y32S
notes: also called XENP44477 MSLN (9 nM) x CD28 (180 nM) 2+1 Fab2-Fc x scFv-Fc
B6: the figures for the Kd with human CD28 and with human mesothelin (MSLN) [4] were 180 nM and 9 nM, respectively.

B7: XENP44479 (bispecific antibody)
heavy: B6 heavy
scFv-Fc: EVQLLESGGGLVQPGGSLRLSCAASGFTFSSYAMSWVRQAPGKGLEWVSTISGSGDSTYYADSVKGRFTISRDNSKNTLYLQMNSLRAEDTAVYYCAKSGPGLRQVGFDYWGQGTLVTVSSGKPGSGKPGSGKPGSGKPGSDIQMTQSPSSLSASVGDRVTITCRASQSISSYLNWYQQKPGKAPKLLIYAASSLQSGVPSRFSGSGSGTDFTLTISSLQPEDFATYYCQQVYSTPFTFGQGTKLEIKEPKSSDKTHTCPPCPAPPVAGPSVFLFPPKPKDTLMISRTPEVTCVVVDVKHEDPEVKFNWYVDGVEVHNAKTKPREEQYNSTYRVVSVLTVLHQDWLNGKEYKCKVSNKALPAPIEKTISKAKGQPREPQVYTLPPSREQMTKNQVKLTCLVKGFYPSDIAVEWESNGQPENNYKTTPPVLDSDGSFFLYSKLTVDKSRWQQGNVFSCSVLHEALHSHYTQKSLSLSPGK
light 1: B1 chain 3 with T31Q, Y32S
light 2: B1 chain 3 with T31Q, Y32S
notes: also called XENP44479 MSLN (90 nM) x CD28 (180 nM) 2+1 Fab2-Fc x scFv-Fc
For B7, the Kd came to 180 nM with human CD28 and 90 nM with human mesothelin (MSLN) [4].

B8: XENP44473 (bispecific antibody)
heavy 1: B1 chain 1 with M50W, M430L, N436S
heavy 2: not shown
light 1: B1 chain 3 with T31Q, Y32S
light 2: B1 chain 3 with T31Q, Y32S
notes: also called XENP44473 MSLN (90 nM) x CD28 (180 nM) 2+1 Fab2-scFv-Fc
With B8, the Kd stood at 180 nM with human CD28 and 90 nM with human mesothelin (MSLN) [4].
